This note sets out measurements from paper PMC5357909, “Structural and functional studies of a noncanonical Dicer from Entamoeba histolytica” (Scientific Reports, 2017).

In series [1] the target is T1, EA256 (EhRNaseIII-AadsRBD chimera) (Entamoeba histolytica / Aquifex aeolicus, UniProt C4LU64 2-256+O67082:145-221, internal_change).
T1 sequence: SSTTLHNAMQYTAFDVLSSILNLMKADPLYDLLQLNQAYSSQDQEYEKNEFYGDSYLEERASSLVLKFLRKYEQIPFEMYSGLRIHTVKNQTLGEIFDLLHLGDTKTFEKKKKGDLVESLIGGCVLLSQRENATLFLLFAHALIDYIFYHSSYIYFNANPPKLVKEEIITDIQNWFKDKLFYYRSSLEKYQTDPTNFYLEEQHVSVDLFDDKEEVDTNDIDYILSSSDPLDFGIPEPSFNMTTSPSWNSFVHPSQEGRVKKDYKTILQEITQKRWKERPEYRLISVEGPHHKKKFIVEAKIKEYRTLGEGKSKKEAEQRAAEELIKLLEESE
Description: EMSA; 5 mM Mg2+; completely bound at 1e-4 M; EMSA (1x): 30 mM Tris-HCl pH 7.5, 30 mM NaCl, 5 mM MgCl2, 1 mM DTT, 0.1 mM EDTA, 5% glycerol; room temperature 10 min then ice 20 min; 6% native PAGE, 0.5x TBE. To be noted: protein: recombinant, tags: His-Sumo removed by Ulp1, chain copies: 2, blunt. A general note: Mobility shift assays separate free from complexed probe on a gel.

Series [2] addresses T1, EA256 (EhRNaseIII-AadsRBD chimera). Briefly: EMSA; 5 mM Mg2+; more than 70% bound at 1e-4 M; EMSA (1x): 30 mM Tris-HCl pH 7.5, 30 mM NaCl, 5 mM MgCl2, 1 mM DTT, 0.1 mM EDTA, 5% glycerol; room temperature 10 min then ice 20 min; 6% native PAGE, 0.5x TBE. The note with it: protein: recombinant; tags: His-Sumo removed by Ulp1; chain copies: 2; blunt, 25 bp.

B1: RNA100 (dsRNA)
RNA 1: GGGAGAAACGCGGCCUCUUCUUAUUUAUGGCGACAUGUUGUGCCACAUAUUGAGCCAGUAGCGCGGUGUAUUAUACCAGACCUUAUUGGUAUGGUCUCCC
RNA 2: GGGAGACCAUACCAAUAAGGUCUGGUAUAAUACACCGCGCUACUGGCUCAAUAUGUGGCACAACAUGUCGCCAUAAAUAAGAAGAGGCCGCGUUUCUCCC
Take B1: the “apparent K (half saturation)” value in series [1] (100 bp) is less than 100 µM.

B2: RNA70 (dsRNA)
RNA 1: GGGAGAAACGCGGCCUCUUCUUAUUUAUGGCGACAUGUUGUGCCACAUAUUGAGCCAGUAGCGCUCUCCC
RNA 2: GGGAGAGCGCUACUGGCUCAAUAUGUGGCACAACAUGUCGCCAUAAAUAAGAAGAGGCCGCGUUUCUCCC
Consider B2, for which the “apparent K (half saturation)” value in series [1] (70 bp) is less than 100 µM.

B3: RNA50 (dsRNA)
RNA 1: GGGAGAAACGCGGCCUCUUCUUAUUUAUGGCGACAUGUUGUGCCUCUCCC
RNA 2: GGGAGAGGCACAACAUGUCGCCAUAAAUAAGAAGAGGCCGCGUUUCUCCC
As for B3, in series [1] (50 bp), the “apparent K (half saturation)” value was less than 100 µM.

B4: RNA25 (dsRNA)
RNA 1: GGGAGAAACGCGGCCUCUUUCUCCC
RNA 2: GGGAGAAAGAGGCCGCGUUUCUCCC
As to B4, the “apparent K (half saturation)” value in series [2] was less than 100 µM.
